For data set [1] the following is noted: related art statement; cited from earlier work.
Data set [2] deals with SJSA-1 (p53+/+) osteosarcoma cell line. The data set can be described thus: Cell cycle arrest in SJSA-1 cells (EdU / Hoescht 33342 imaging). Format: cell-based. The settings on record: 10 uM, 24 hours, compared to control (Mock), FIG. 7. How it is done:
In this example, it was examined if the modified three-helix bundle proteins prepared in Example 3 can induce G1 and G2/M phase cell cycle arrest in SJSA-1 (p53+/+; ATCC), which is an osteosarcoma cell line expressing wild-type p53.
In particular, SJSA1 cells were treated with the modified three-helix bundle protein M11 or M25 at the concentration of 10 uM for 24 hours, and stained with EdU (Edu staining kit, Life Technology Inc.) and Hoescht 33342 (Life Technology Inc.). Among the cells, at least 1000 cells were analyzed by imaging with incell analyzer 6000 (Ge Healthcare) and incell communicator (GE Healthcare). For comparison, the same experiment using Nutlin 3a (Sigma) at the concentration of 10 uM was performed as a positive control.
The imaging results were analyzed by measuring the intensities of EdU (S phase indicator) and Hoescht33342 (DNA content indicator) at single cell level, and determining each population by measuring intensity of Hoescht33342 (DNA content indicator) and EdU (S phase indicator) at single cell level, thereby measuring ratio of cells at each cell cycle phase. The obtained population of each cell cycle phase was shown in FIG. 6, and the S phase measured by EdU uptake amount (EdU intensity) was shown in FIG. 7. […] G2/M is considered as a course progressing to G1 phase.

The target of data set [3] is T1, full-length HDM2 (NP 002383.2) (Homo sapiens, UniProt Q00987).
T1 construct: full-length HDM2 (NP 002383.2)
T1 sequence (Q00987 1-497 isoform Q00987-11): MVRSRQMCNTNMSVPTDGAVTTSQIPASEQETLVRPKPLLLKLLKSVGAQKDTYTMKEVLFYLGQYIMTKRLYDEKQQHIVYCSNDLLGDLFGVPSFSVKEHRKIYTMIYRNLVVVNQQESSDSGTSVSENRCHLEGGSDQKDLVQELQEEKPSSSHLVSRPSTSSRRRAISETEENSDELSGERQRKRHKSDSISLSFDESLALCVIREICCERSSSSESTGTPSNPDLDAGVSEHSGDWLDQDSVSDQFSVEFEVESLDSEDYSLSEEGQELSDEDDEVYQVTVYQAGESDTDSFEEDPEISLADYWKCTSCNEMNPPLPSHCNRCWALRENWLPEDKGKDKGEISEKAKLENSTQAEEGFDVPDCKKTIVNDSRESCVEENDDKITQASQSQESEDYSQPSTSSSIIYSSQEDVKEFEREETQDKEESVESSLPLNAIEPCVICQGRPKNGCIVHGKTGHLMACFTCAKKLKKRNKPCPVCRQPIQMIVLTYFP
The data set can be described thus: ELISA binding strength to full-length HDM2. As to conditions: absorbance at 450 nm, GST-fused protein 0-5.5 uM, versus GST only (negative control) and GST-p53LZ2 (positive control), FIG. 4. The protocol:
(§1) The binding strength of the modified three-helix bundle proteins prepared in Example 1 was examined by ELISA.
(§2) In particular, each of full-length HDM2 (NP 002383.2), HDM2 N-terminal domain (NTD; the region from 1st to 125th amino acids of NP 002383.2), full-length HDMX (NP_001191100.1), and HDMX NTD (the region from 1st to 132nd amino acids of NP_001191100.1) was diluted to the concentration of 20 μg/ml with coating buffer (pH 9.6; 0.05M carbonate-bicarbonate buffer, pH9.6; Sigma-Aldrich), and coated on 96 well (Nunc, Maxisorp). The well was incubated overnight at 4° C. Thereafter, bindings between other proteins were blocked with 300 ul of 3% skim milk w/PBS-T (at room temperature for 3 hours). The 96 well plate was washed with 200 uL of PBS-T and treated with GST-M11 (SEQ ID NO: 7) or GST-M25 (SEQ ID NO: 16) at a concentration of 0, 0.5, 1, 1.5, 2, 2.5, 3, 3.5, 4, 4.5, 5, or 5.5 uM (micromole). The GST protein was produced from GST cds included in pGEX-4T3 vector purchased from GE healthcare.
(§3) One hour after, the plate was washed with 300 uL of PBS-T, and treated with 100 uL of HRP conjugated-anti-GST antibody (Abcam, 1:2000). […] Thereafter, absorbance at 450 nm was measured using microwell reader (Molecular Device, 340PC384). […]

For data set [4], the target named is T2, HDMX NTD (the region from 1st to 132nd amino acids of NP_001191100.1) (Homo sapiens, UniProt O15151).
T2 construct: the region from 1st to 132nd amino acids of NP_001191100.1
T2 sequence (O15151 1-132 isoform O15151-5): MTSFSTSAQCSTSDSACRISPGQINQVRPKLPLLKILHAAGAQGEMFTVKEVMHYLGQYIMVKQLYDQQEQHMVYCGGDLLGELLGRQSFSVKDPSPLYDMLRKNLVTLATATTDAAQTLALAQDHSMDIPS
The data set can be described thus: ELISA binding strength to HDMX NTD. The settings on record: absorbance at 450 nm, GST-fused protein 0-5.5 uM, versus GST only (negative control) and GST-p53LZ2 (positive control), FIG. 3. How it is done: as §1, §2, §3
(In general: ELISA stands for enzyme-linked immunosorbent assay.)

Data set [5] deals with T3, HDM2 N-terminal domain (NTD; the region from 1st to 125th amino acids of NP 002383.2) (Homo sapiens, UniProt Q00987).
T3 construct: the region from 1st to 125th amino acids of NP 002383.2
T3 sequence (Q00987 1-125 isoform Q00987-11): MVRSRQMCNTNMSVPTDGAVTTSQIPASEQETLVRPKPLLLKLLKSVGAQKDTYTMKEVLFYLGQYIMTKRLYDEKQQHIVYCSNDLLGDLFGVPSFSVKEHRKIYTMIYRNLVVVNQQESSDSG
The data set can be described thus: ELISA binding strength to HDM2 NTD. As to conditions: absorbance at 450 nm, GST-fused protein 0-5.5 uM, versus GST only (negative control) and GST-p53LZ2 (positive control), FIG. 5. How it is done: as §1, §2, §3

Data set [6] deals with SJSA-1 (p53+/+) osteosarcoma cell line. Nature of the data set: Cancer cell proliferation inhibition in SJSA-1 cells (CellTiter-Glo cell viability). Format: cell-based. As to conditions: 5 days, TAT-coupled protein, FIG. 8; for cancer cell death rate: 10.00 uM. How it is done: The effects of the modified three-helix bundle proteins prepared in Example 1 to inhibit cancer cell proliferation was examined in SJSA-1 (p53+/+; ATCC), which is an osteosarcoma cell line expressing wild-type p53.
The cells were cultured in CO2 incubator under the conditions of 37° C., and CO2 5%, for 5 days. 80 uL of CellTiter-Glo reagent (Promega) was added to each well, and luminescence was measured with EnVision Multilabel Reader (PerkinElmer), to measure cell viability. The cell viability is indicated by a relative value to that of non-treated cells (“1.0”).

The values that follow come from patent US9902758B2, “Three-helix bundle protein and use thereof” (Samsung Electronics Co., Ltd., priority 2015, dated 2018).

In the case of `COc1ccc(C2=N[C@@H](c3ccc(Cl)cc3)[C@@H](c3ccc(Cl)cc3)N2C(=O)N2CCNC(=O)C2)c(OC(C)C)c1` [Nutlin-3], in data set [1], the cytotoxicity entry is listed as “high level of cytotoxicity”.
With `COc1ccc(C2=N[C@@H](c3ccc(Cl)cc3)[C@@H](c3ccc(Cl)cc3)N2C(=O)N2CCNC(=O)C2)c(OC(C)C)c1` [nutlin3a, Nutlin 3a, reference compound], the “level (cell number) of cells at S phase measured by EdU intensity” value (“level (cell number) of cells at S phase” for short) in data set [2] is on record as “decrease in level (cell number) of cells at S phase compared to that of control (Mock)”.

B1: M25: modified three-helix bundle protein, a3D variant, SEQ ID NO: 16 (protein)
chain: MGSWFEFAWRLLEIKTRLQALGGSEAELAAFEKEIAAFESELQAYKGKGNPEVEALRFEAYWIRLELQAYRHN
modifications: Synthetic M25
Regarding B1, in data set [3], the “binding strength to full-length HDM2” value is “considerably higher than that of the negative control, and similar to or higher than that of the positive control”. For the same molecule, the “binding strength to HDMX NTD” value in data set [4] is “considerably higher than that of the negative control, and similar to or higher than that of the positive control”. Further, in data set [2], the “level (cell number) of cells at S phase” value is “decrease in level (cell number) of cells at S phase compared to that of control (Mock)”. In addition, in data set [5], the “binding strength to HDM2 NTD” value is “considerably higher than that of the negative control, and similar to or higher than that of the positive control”. In addition, in data set [6], the “cancer cell death rate” value is given as “at least 80%” and the “cancer cell proliferation inhibition effect compared with positive control” value was “equal to that of Nutlin-3”.

B2: M11: modified three-helix bundle protein, a3D variant, SEQ ID NO: 7 (protein)
chain: MGSWAEFSQRLFAIYWRLLALGGSEAELAAFEKEIAAFESELQAYKGKGNPEVEALRKEAAAIRDELQAYRHN
modifications: Synthetic M11
As to B2, the “binding strength to full-length HDM2” value in data set [3] is “considerably higher than that of the negative control, and similar to or higher than that of the positive control”. In addition, in data set [4], the “binding strength to HDMX NTD” value is “considerably higher than that of the negative control, and similar to or higher than that of the positive control”. Moreover, in data set [2], the “level (cell number) of cells at S phase” value is “decrease in level (cell number) of cells at S phase compared to that of control (Mock)”. Besides, in data set [5], the “binding strength to HDM2 NTD” value was “considerably higher than that of the negative control, and similar to or higher than that of the positive control”. Further, in data set [6], the “cancer cell death rate” value was “at least 90%” and the “cancer cell proliferation inhibition effect compared with positive control” value is reported as “equal to that of Nutlin-3”.
